Target: HLA-DR antigen expressed on human cells (L428, KM-H2, B cells of PBMC, other cancer cell lines, tumour tissue) (human)
Experiment: cell-based or functional assay

decrease in abundance of B cells (CD19 positive cells) among live PBMC, relative to isotype control (1 μg/ml antibody, 2 h, flow cytometry): ~60%
B1: BP1206 chimeric antibody (human Fc chimeric recombinant antibody designed based on the antibody LN-3) (antibody, human IgG1, kappa, L234A L235A, V domains shown)
VH: QVHLKQSGPGLVQPSQSLSITCTVSGFSLTRFGVHWIRQSPGKSLEWLGVTWSGGTTVYNGAFISRLSITKDISKSQVFFKMNSLQVDDTGIYYCARAYYAMDYWGQGTSVTVSS
VL: DVQMTQSPSYLAASPGETITIHCRASESIGKYLAWYQKKPGRSNRLLIYSGSTLQSGIPSRFSGSGSGTDFTLTVSSLEPEDFAMYYCQHHNDYPWTFGGGTKVEIKR

Reference: patent WO2020171171A1 (dated 2020)
